For series [1], the system named is Nc1nc2c(ncn2[C@@H]2O[C@H](COP(=O)(O)OP(=O)(O)OP(=O)(O)O)[C@@H](O)[C@H]2O)c(=O)[nH]1. Put plainly: purified protein. The note with it: pyrophosphorylase activity, 250 μM Fuc-1-P, 10 mM MgCl2, pH 7.5, 37 °C.
Series [2] concerns C[C@@H]1O[C@H](OP(=O)(O)O)[C@@H](O)[C@H](O)[C@@H]1O. Nature of the series: purified protein. The note with it: pyrophosphorylase activity, 400 μM GTP, 10 mM MgCl2, pH 7.5, 37 °C.
For a further series, the target named is T1, TxFKP (Thermophagus xiamenensis, UniProt A0A1I2DJ10).
T1 construct: gene SAMN05444380_11920; codon-optimized gene in pET-28a, E. coli BL21(DE3) with GroEL/GroES/Trigger Factor; Ni-IMAC; GroEL (~60 kDa) contaminant remains
T1 sequence (A0A1I2DJ10 1-954): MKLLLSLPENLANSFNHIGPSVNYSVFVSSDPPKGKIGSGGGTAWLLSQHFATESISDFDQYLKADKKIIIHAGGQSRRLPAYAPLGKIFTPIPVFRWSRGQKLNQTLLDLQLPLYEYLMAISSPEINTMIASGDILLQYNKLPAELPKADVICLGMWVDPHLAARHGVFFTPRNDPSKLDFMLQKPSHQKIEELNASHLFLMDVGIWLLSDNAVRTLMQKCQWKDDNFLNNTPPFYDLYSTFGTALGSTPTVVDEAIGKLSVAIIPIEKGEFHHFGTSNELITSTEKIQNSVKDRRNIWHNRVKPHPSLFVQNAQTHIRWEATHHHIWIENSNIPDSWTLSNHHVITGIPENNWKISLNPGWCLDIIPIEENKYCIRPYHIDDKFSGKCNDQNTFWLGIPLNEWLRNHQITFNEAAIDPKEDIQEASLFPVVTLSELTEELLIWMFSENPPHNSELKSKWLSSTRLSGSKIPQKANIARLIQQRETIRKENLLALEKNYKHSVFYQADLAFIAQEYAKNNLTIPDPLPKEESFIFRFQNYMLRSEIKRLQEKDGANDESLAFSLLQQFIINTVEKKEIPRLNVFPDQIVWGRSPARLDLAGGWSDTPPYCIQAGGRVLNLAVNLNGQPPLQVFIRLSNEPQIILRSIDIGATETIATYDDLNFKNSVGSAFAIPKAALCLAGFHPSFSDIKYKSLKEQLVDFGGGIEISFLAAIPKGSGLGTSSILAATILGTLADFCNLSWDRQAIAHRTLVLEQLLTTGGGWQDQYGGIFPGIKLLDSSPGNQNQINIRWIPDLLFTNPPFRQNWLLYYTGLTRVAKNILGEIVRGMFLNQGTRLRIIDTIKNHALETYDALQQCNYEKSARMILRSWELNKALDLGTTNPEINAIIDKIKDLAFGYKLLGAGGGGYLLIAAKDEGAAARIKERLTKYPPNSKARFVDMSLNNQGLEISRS
Put plainly: thermal shift, SYPRO orange. It is filed as binding. The note with it: 2 mM L-fucose, pH 7.0; Tm2 assigned to FUK domain. From the text:
thermal shift, SYPRO orange on TxFKP

The target in the next series is T2, BfFKP (Bacteroides fragilis, UniProt Q58T34).
T2 construct: gene fkp; codon-optimized gene in pET vector, E. coli BL21(DE3) with GroEL/GroES/Trigger Factor; Ni-IMAC; no solubility tag
Put plainly: thermal shift, SYPRO orange. Format: binding. The note with it: 2 mM L-fucose, pH 7.0; lower melting transition; domain not assigned. From the text:
thermal shift, SYPRO orange on BfFKP

Substrate in series [3]: Nc1nc2c(ncn2[C@@H]2O[C@H](COP(=O)(O)OP(=O)(O)OP(=O)(O)O)[C@@H](O)[C@H]2O)c(=O)[nH]1
Nature of the series: purified protein. The note with it: pyrophosphorylase activity, 250 μM Fuc-1-P, 10 mM MgCl2, pH 7.5, 37 °C. Format: biochemical, Thermophagus xiamenensis.

Substrate in series [4]: C[C@@H]1O[C@H](OP(=O)(O)O)[C@@H](O)[C@H](O)[C@@H]1O
Put plainly: purified protein. The settings on record: pyrophosphorylase activity, 100 μM GTP, 10 mM MgCl2, pH 7.5, 37 °C. It is filed as biochemical, Thermophagus xiamenensis.

Substrate in series [5]: Nc1ncnc2c1ncn2[C@@H]1O[C@H](COP(=O)(O)OP(=O)(O)OP(=O)(O)O)[C@@H](O)[C@H]1O
Nature of the series: purified protein. The settings on record: kinase activity, 1 mM L-fucose, 10 mM MnCl2, pH 7.5, 37 °C. It is filed as biochemical, Thermophagus xiamenensis.

T2 sequence (Q58T34 whole entry): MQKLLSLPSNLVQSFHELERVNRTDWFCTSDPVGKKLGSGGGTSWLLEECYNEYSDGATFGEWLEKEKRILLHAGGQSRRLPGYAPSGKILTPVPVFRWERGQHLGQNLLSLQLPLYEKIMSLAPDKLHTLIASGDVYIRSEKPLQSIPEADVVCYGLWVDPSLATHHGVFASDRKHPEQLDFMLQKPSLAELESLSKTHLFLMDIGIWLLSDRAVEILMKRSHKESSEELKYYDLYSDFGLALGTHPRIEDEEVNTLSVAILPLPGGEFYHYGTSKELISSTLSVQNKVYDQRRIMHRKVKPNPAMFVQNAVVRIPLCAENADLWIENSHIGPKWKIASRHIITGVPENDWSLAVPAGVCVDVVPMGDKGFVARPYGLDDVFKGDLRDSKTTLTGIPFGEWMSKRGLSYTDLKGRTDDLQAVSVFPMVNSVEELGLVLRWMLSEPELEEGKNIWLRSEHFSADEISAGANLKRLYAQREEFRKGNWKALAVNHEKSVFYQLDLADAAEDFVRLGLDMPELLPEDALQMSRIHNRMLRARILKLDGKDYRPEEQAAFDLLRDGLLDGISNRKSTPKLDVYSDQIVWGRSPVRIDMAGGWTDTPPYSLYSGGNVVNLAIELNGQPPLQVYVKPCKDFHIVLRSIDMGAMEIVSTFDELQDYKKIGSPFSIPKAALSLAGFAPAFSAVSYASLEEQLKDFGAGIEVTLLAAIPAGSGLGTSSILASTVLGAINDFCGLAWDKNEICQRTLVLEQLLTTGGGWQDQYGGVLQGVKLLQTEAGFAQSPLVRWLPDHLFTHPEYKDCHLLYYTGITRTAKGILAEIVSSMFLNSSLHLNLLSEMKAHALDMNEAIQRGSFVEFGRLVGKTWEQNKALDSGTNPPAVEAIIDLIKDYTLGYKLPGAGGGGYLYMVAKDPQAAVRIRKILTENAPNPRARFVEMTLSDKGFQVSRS

With BfFKP (Bacteroides fragilis), in series [1], the Km (as a rule, the concentration of substrate that gives half-maximal velocity) came out at 140 ± 30 µM; the kcat (in general, the maximal rate divided by the concentration of active sites) came to 13 ± 3 s⁻¹; the kcat/Km (commonly the second-order rate constant that governs catalysis at low substrate concentration) came to 90000 ± 30000 M⁻¹ s⁻¹. Further, in series [2], the Km was 120 ± 60 µM, the kcat was found to be 9 ± 3 s⁻¹ and the kcat/Km was 70000 ± 50000 M⁻¹ s⁻¹.
In the case of `C[C@@H]1OC(O)[C@@H](O)[C@H](O)[C@@H]1O` (stereo partly drawn) [L-fucose], the “Δ Tm2 (°C)” value at TxFKP was found to be 1.8 ± 0.2 °C. Further, the “ΔTm1 (°C)” value on BfFKP is 2.0 ± 0.0 °C.

B1: TxFKP (Thermophagus xiamenensis) (protein)
chain: T1 sequence (A0A1I2DJ10 1-954)
notes: codon-optimized gene in pET-28a, E. coli BL21(DE3) with GroEL/GroES/Trigger Factor; Ni-IMAC; GroEL (~60 kDa) contaminant remains
For the molecule B1, in the series “purified protein [3]”, the Michaelis constant (Km) stood at 27 ± 11 µM, the catalytic constant (kcat) came out at 8 ± 1.1 s⁻¹ and the kcat/Km turned out to be 300000 ± 130000 M⁻¹ s⁻¹. For the same molecule, in “purified protein [4]”, the Michaelis constant (Km) worked out at 66 ± 20 µM, the kcat stood at 4.8 ± 0.6 s⁻¹ and the specificity constant (kcat/Km) came to 70000 ± 30000 M⁻¹ s⁻¹. Besides, in the series “purified protein [5]”, the Km was found to be 1000 ± 300 µM, the kcat was 0.74 ± 0.07 s⁻¹ and the specificity constant (kcat/Km) worked out at 700 ± 300 M⁻¹ s⁻¹.

Values taken from PMC12732313, “Phylogenetic and biochemical analysis of the evolution and interdomain modularity of bifunctional L-fucokinase/GDP-fucose pyrophosphorylases” (The Journal of Biological Chemistry, 2025).
